The domain aggregation screens of Martell et al. (2025)

Test: soluble fraction after stress (log2 fold change); higher = more stays soluble; pooled small domains, quantitative proteomics
Settings: stress: 50 degC
Method in brief: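 The stress applied to every library was 50°C. These custom libraries of small protein domains were pooled and measured at high throughput with quantitative proteomics as the read-out. Aggregation propensity is expressed as the base-two logarithm of the fold change in how much of each protein remains soluble. The higher the value, the more of that protein stays in solution.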

HMDVKQSAAGVAGRIRFELNRTLTGQGHEKFTSASQAIGPRPAAELARRLFNSGSVVGVHVFANIVTVDLL
soluble fraction (log2): -0.051

HMENNNIAFSKFLEEVDSGRVVQVEIQGNNISGTLSDGSKFKTYSPNYPDLVSKLSEKNVSIIASPV
soluble fraction (log2): 0.115

HMEGVSNLIVSVTRVKVTVDLSQAKVYLSIFPSEQAAFYLNALQQNRFQLKHDLSQLLKNQLRRIPTLQF
soluble fraction (log2): 0.283

HMGTHPGIDSGIISDILALKKELPTRSAAKIITMLTLAGKMEENSIHVKTVNRILYQYGYTRDTLS
soluble fraction (log2): -1.88

HMWSQEPEYRPLYNSMDGFDAGQVVEMLQQSRIDYKVEPNSGALLVRSEDLADARLRLASAGISP
soluble fraction (log2): -0.0156

HMIHKTDAINLGQRLLKSSLKEFDVSLKDIPNKTLMYILSEYKFNSLDDLYREIGLGNVIPKLVALRMAP
soluble fraction (log2): -0.423

HMPKHFIDFSEGEVVSITDGPFKGFDGAISEIDNQKGKVKVMVSMFGRDTSVELDALQVKKV
soluble fraction (log2): -0.107

HMKEILLITGKGLHSGQDDVYKSAQLSKLRYSVPEFIKSNLEISQLILSVETPLQKDGGDGALLIK
soluble fraction (log2): 0.13

HMKEATTSPLDGIPGIGSKRKKALLSHFGSARSVARADIPDLMRVDGISRQVAETIYGWFHN
soluble fraction (log2): -0.179

HMFYQLTENQRRILSSLEQNPRVSAAHLAEEIGISSRKVENNLKKLKEIGLLQRHGSPRKGYWSINQGW
soluble fraction (log2): -0.623

HMVLSPAQVRRALMVSGLFTEARVARQLGVPMDLKQILRIILRNTPPQSAMARELESAIDEIESRNAMRD
soluble fraction (log2): -1.62

HMDTEIGDILALRQIMELLDEKDRQLIIMRYFQGLTQSVTAKNLNMTQVQVSRREKKLLTFMREQLL
soluble fraction (log2): -0.739

HMSNTIFGINGPVVTVASKDFSMQEMVYVGNERLVGEVISIDDDLTTIQVYEVTTGLKPGEPVVGTGSAM
soluble fraction (log2): -0.531

HMDRAIAAHLEARVRDALKQLSPEQTRVIELFFFDNKTHAEIENDLKIPLGTVKSRLRLALNKLRASL
soluble fraction (log2): -1.96

HMGKPPNNRIHRAKRDYALNLVKEHYPDFGPTLAAEKLAEHHGFTVSRETLRKWMIEDGIWLSRKQRR
soluble fraction (log2): -0.123

HMLQEHVLEIRHPSWNDAFRIIGHDGWRTQTGAHAAILSYDEEELNIKWDSWGYERFIRDEKGIFRLAA
soluble fraction (log2): -0.055

HMRTFFEIEQLKAYVGEEIQVKFEADSHKQTVLGKLISISEDFIEIENSKKGNLKISLDNYLTSKLIY
soluble fraction (log2): -1.6

HMKTRQVTVRNGRIEIFDKRFSTERLVFTAANLPVLEREGEVFTAGIPDSRDFINLWARDGSFAGSVPRV
soluble fraction (log2): -1.06

HMNEVRINTAHIEHKYLGEVKVLDIQEMRNARGRDADPLAFLAIRFWSPRGVLVRVKDSRDATPYWLIS
soluble fraction (log2): 0.3

HMTDITSAITRLNKYNKSGTPLTIDSVTPEALQTLQAKVSSAFEIGAVNQQTYDDVTKDIATLQQYLSSA
soluble fraction (log2): 0.15

HMSAERFDFRIGPELAGKRFDQALAEALPQFSRSRLSTWIKDGRATLNGATMRPKDSVHAGDTVVVNAE
soluble fraction (log2): 0.126

HMNLRLKEVLDEKNMSLVTLSEKTGIEKGNLSAISNNKKNPTVETLSKIAKALQISLAELFESPP
soluble fraction (log2): 0.303

HMSDTMTVTNVKYAIYLRSTPSEASDANIIMEIPVGSKVTYLDTPNNTFYKISYGGTVGYSKQIYLTF
soluble fraction (log2): -0.836

HMHLTEAPLIKITYFEADQKKSGGQYITIINHLKKINEYENLLVLENGVKINIDDIYELESV
soluble fraction (log2): -0.132

HMGQMGHAVVAKTDLAVGTPLTRDLVAVREVPVEWLHSSAITPEQFERAAGAVLAQPARGGEPLVWSQLEE
soluble fraction (log2): 0.0906

HMNIGSKLRYLIEEANITQRQLADALHISPSALNGYINQGKEPDYATLVRIADYFHTSTDYLLGHSNIR
soluble fraction (log2): -0.00171

HMQPEKELAPLIGQRVSVRLHDGDGGYRDLLGELESPDSIRKKNGEIAFFDPAKIAALRVVV
soluble fraction (log2): 0.0899

HMQSYSYYDFQKALQNKTVESVIIEPDKTVPTGTLQIQLKGDTKEELNVSDVTEVEELLQSYDVDYKLRSV
soluble fraction (log2): 0.131

HMGPLYARVKAIVLARIMGGDWPPGTALPAEMELARALGVSQGTVRKALDALTAEQVVVRRQGSGTYVAE
soluble fraction (log2): -1.04

HMFRDFSETLLRKLQAAGGFLPFTDKTDAEAIAEHFQVSKKTFKRAVGTLYKQRRILIDDEGITLIG
soluble fraction (log2): -0.148

HMTPQGALDYSRNAKYLRDQVTAINYLKQARLSLNTTDANYRQTLEQINQAIAKHNQALQQAGVQSQQLAT
soluble fraction (log2): 0.0556

HMTLYITDQMRKILDYVATNQEIDEKAVMDLLSIQRTRAYLIAKKMTDIGLLQVQGRGKTKTYRLAARS
soluble fraction (log2): -1.93

HMLPSDLDEGNRRRQLIEGAARLFRAKGFDGTSTRDIAAAAGMRSGSPFYHFDSKNALLYVVVQEGM
soluble fraction (log2): -0.0519

HMDLEIENYDLREILNLFKLDYNFDNVDLKRAQKIALKTHPDKSNLPKEYFMFFMKAFQIVQQIYYYRY
soluble fraction (log2): -0.47

HMDAMMQRLERLKELASSADGSKDYLILGPLRRDLAKLMALEDPKLRQGAEELDRKILAILS
soluble fraction (log2): -0.208

HMFDKNKPVVVEGENAEVALKKVSKYFNVPTEKLDYTLLGQKSAGLLGIGSKVYQFKVWLKREIP
soluble fraction (log2): 0.396

HMAATVKVPDLTKMTPDEAQRALGQVGLKGKQGDDVDDDSVPVGYIAKQDEAPNSDAKAGDTITYHL
soluble fraction (log2): 0.16

HMTYSAFITARNKRIAEEYSVLLDSLNISNNVIYRLGSWVVEVNVSDHSRAIDEIYSYERSGRIDKV
soluble fraction (log2): -0.498

HMEMNDFETLRDMYLTGKIWNVGDIVEANGVRGKVIRKGTNYLSFVDEDNKVHKAWLYDIEE
soluble fraction (log2): -0.197

HMNGAITLRVRPSDEGKRLDVFVVSQLTGYTRSFVAGLIGDRHFLVNGQPKKPGYRIKSSDTISGVIPAPA
soluble fraction (log2): -1.21

HMNKDEFLRRLEDALSGEVPASVIRENLNYYADYLSQELGKGRTMDEIIEEIGEPNIVARTIINSAEAA
soluble fraction (log2): 0.0708

HMSEFGENLKKLRTARDLTQQELGAKVGLSKAVVSKYENGLGYPTFDVLIRIAAYFGVTTDYLLGV
soluble fraction (log2): -0.442

HMPEAITLRDLKTYSKQAASGYLDDHQLVLVEKEAHSEDVPEGQVIKQKPGAGASVKPGDKVEVTFSLGPE
soluble fraction (log2): 0.0136

HMKDESQLVGAEGKAVTPLRPTGVALIGEKRLDVLTEGEFIPRNSDIIVSRVEGNKIIVKLKN
soluble fraction (log2): 0.177

HMYKLTTQRRAILDVIIENHDKHLNPEEIYDIVKEKYPEIGIATVYRTLQLLEKLNIIYRLNFDDGYNRYE
soluble fraction (log2): -2.3

HMHKLTSRQEEILQFIKDYLSEIGYPPTRSEIAQKMGFRSTNAAEEHLRALARKGAIEILPGPSRGLRLP
soluble fraction (log2): -0.455

HMETLSVRERMTSIISLLNKHEDIEFSKLFNISEGRLGVVVTFLALLELVKESLVDVIQNQPMSKLYIGKK
soluble fraction (log2): -0.311

HMSWGDVKLTMWGAEEDQTMLREMADAFIEQNADKGNVTIEIGVQSESSAKDTVLADPESAADVFA
soluble fraction (log2): 0.00693

HMKAQVKSVLDEIPGVGPTRRKALMKHFTSIEEIKQAEFETLLEAEGMNRAAAQSVYDFFHN
soluble fraction (log2): -0.138

HMAKETLRANIKDYIQKQIASGVYRPGDRIVETQLAREMNVSQAPVREAILELVSLGLLEERPYSGHMVRQ
soluble fraction (log2): 0.178

HMNILKKDKRLWDENNLNKPLLFELLENYDKEIFELLLTDKDIKAKFFVQAGESYVFKYDDFRFAIEQN
soluble fraction (log2): -0.702

HMNVVGAKGRIIKISSSEEKMAVAEIEGHGEWNIRTNSEIELFVGKSVEVIEMKGNYLLVNQI
soluble fraction (log2): -0.0624

HMPKPMKATKITLQQEPRIRVDFTYDPLKVQQIKTISGARWSKSLKAWHIPYTKEAFNQLKKLFPNVEIEV
soluble fraction (log2): -0.166

HMQPIAVHIGTENPMKSLSDLSVVRAQFTSGGRVIGSVAVLGPTRMQYSRIVGMMRFMQQRLDLLLKG
soluble fraction (log2): 0.0586

HMIAAVIAQVANTNERIILEKRYLSFKSWDEIAVEMRISPRWAYTLHERALKAVDQVLSKQNNE
soluble fraction (log2): -4.07

HMFMLQAKRVPVSELENFKGIVAEDVVSQSRALILPRGSNLSWLSSSAMQNLSTRLALEGVESISIYL
soluble fraction (log2): -1.43

HMKKPLEYIDVDKREDFPPVPNGMRYIHFYGGTKNYRAYIAPEDISRADFMEQYPEYVPEHN
soluble fraction (log2): 0.184

HMWSGEPFLDELRHADTLLETDPEAALAEYRALADKGSAAAMMALGNAYASGSHVARDEGEAEHWYRRAA
soluble fraction (log2): 0.0547

HMTGLRETIPAALDGERLDRVVALLGDVSRSRASAALEAERVTLDGEVVTLRSHRVREGEELTVAGFE
soluble fraction (log2): 0.405

HMSRVKQERLNRFVEAFEAYFRSVHPGEIDVEYLKSDEFGDIFESILHRVMHTASEEKMHRFKKILLNEM
soluble fraction (log2): -2.13

HMGSFGAMLKRNRKLAGLTQEQLAEKLDVSTVAVQNWESGKNQIRSEKLTKLSYLFNIPLETLIHEMLIS
soluble fraction (log2): -0.951

HMGIMNFDTWLKSLPGTPTPTIAAKKSGLAAPTLLRHVERGYSTADNVIAIAKAYGVSPIDALVDNGML
soluble fraction (log2): -0.695

HMYYNDEELDGYRGTPSDAYSDNAVEEFREVLYTLREDEVSGWVRSLQLRGIFLPDAIKDETFLI
soluble fraction (log2): -1.59

HMERLTVVPELLKRSLSEAQPLVTSARLRLEVSGGAPEDTSRAIVVGQKPPPGTRVQVGTTVIVTVQIQRP
soluble fraction (log2): -0.0498

HMGIVYGVIKENWDQDHPGMVKVEILQGESGKNVSDWIPVMSPYAGKEFGAYALPEIGTQAVVAFE
soluble fraction (log2): -0.0355

HMKPSTETLYATARINVRAAADTSAEKLGSIEMGEAVVRTGTDGDWSIIEYNGSTGYVKSEYLTANAGDAT
soluble fraction (log2): -0.0962

HMTLPELTDRELQILQLLSVGNSSQKIAKQLNISTHTVSTHRKQLLRKLGAQNGADLIRRAQKLGIL
soluble fraction (log2): -0.44

HMYAGTVTQVKNNKVMLEFDGETVNVGDQFFILNSDGKKVAIVEITAAKNKKALANVLKGKAVVDGTTQAK
soluble fraction (log2): -0.111

HMHIELNDTQKRILNFLSDDPNLSAVRLAEQLGISSRNVEKNIKKLKEYGILIRHGSPKNGYWEIVV
soluble fraction (log2): 0.0335

HMSQPALSYAFAKAQGVIVTALGDVAEVARRKGSQPQALAEVRRIAGRPLALREVDDAAFDRLLQDHYARS
soluble fraction (log2): -0.243

HMEAALTLRVDKAGSLRSLLSDEQYAKTSKIIVSGEINTLDIKTLQEMSGEKGSLQSIDLSQANIVAY
soluble fraction (log2): -0.00676

HMTDYKTNLQEFLQQDGEVEIEYKLLAEVGPSHARQFEVDVMMGDRVLGSGVGRNKKAAEQAAAKVALSKL
soluble fraction (log2): -0.124

HMTVTKYGKKILEIVSSSRSHMTAEEIFDALRQTYPTVVLATVYNNLNRLWQDDLIRKVSVEGMPDRYD
soluble fraction (log2): -1.22

HMNNGYSINEIAKLMKMTLKVVRRYVASGELKTTKTNNTYSISEEAFNEFKKYIEEGGDAKHAQEVADTFK
soluble fraction (log2): -0.229

HMNYTYTVPEGIRYLRADKALALAFPDHSRTALQRAFDSGLVTLRGVAIKRDQSVTALDTLEFAMPDI
soluble fraction (log2): -0.81
